In publication PMC6021390, “A promiscuous cytochrome P450 aromatic O-demethylase for lignin bioconversion” (Nature Communications, 2018):
Entries after “also recorded” stand apart in the source; their conditions may differ. Read-outs that look alike come from different tables or passages of the source.

Tests used:
GcoA = molecular target: T1, GcoA (Amycolatopsis sp., UniProt P0DPQ7); assay: Determination of substrate dissociation constants with GcoA (UV/vis spectral shift titration; fluorescence quenching for vanillin); format: binding
T1 construct: GST (N, cleaved yes); made in house; host or cells: E. coli Rosetta 2 (DE3)
T1 sequence (P0DPQ7 1-407): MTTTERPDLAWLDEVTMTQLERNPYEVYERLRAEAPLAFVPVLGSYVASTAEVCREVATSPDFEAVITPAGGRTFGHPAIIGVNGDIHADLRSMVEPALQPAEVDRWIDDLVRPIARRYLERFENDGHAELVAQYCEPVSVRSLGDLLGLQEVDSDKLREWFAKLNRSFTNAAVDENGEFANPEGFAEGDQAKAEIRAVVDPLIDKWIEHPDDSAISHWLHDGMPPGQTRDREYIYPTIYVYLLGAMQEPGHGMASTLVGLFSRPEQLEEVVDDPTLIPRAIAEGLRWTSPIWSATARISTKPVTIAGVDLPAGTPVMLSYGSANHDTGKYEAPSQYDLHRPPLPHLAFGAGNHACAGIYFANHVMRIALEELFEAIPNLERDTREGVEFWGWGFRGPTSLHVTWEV
Method: A total of 0–60 µM of substrate analogs, in 0.25 or 0.5 µM aliquots, were titrated into a cuvette containing 1–6 µM GcoA in 25 mM HEPES, 50 mM NaCl, pH 7.5. The spectrum after each substrate addition was recorded, beginning with no substrate bound. The solution reached equilibrium before the next addition. A difference spectrum was made to illustrate the shift from a low-spin aquo-heme complex to the high-spin substrate-bound complex (spectral shift from 417 nm to 388 nm). […] The absorbance at 388 nm was plotted as a function of [substrate], yielding a quadratic curve that was fit to Eq. (7) to determine the KD.7 ΔAbsobs=ΔAbsmax/2EtL0+Et+KD-L0+Et+KD^2-4Et*L0. Where L0, Et, KD, and ΔAbsmax are the ligand concentrations, total protein (subunit) concentration, the equilibrium dissociation constant, and the maximum Abs388–417 nm, respectively. Reported values are the average of 2 or more measurements.
Since the UV/vis spectra of vanillin and heme overlap, fluorescence quenching was monitored to determine the KD. […] Fluorescence emission intensity was followed upon titration of vanillin (0–350 µM) after equilibrium had been established. The % fluorescence quenched, Eq. (8), was plotted as a function of vanillin and fit to Eq. (7) above, replacing ΔAbsmax with ΔFluorescencemax.8 %Fquenched=Fmax-Fintensity/Fmax×100%.

GcoAB [1] = molecular target: T2, GcoAB (Amycolatopsis sp., UniProt P0DPQ7); assay: HPLC quantification of demethylated aromatic product versus NADH consumed; format: biochemical, Amycolatopsis sp. ATCC 39116; design: GST (N, cleaved yes); made in house; host or cells: E. coli Rosetta 2 (DE3); conditions: saturating substrate, 300 μM NADH, 0.2 μM GcoAB
T2 sequence (P0DPQ7 1-407): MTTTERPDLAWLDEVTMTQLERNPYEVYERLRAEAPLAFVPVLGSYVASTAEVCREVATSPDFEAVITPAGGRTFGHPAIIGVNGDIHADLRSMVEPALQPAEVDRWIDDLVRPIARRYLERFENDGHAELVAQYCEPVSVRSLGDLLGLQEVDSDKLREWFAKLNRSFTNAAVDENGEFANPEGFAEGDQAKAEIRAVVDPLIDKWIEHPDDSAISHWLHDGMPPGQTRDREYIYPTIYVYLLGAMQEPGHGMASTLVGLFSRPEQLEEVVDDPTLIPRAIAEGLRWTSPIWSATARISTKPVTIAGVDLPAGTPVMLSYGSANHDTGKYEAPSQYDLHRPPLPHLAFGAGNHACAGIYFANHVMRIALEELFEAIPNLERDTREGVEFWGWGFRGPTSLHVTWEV
T2 sequence (P0DPQ8 1-334 partner): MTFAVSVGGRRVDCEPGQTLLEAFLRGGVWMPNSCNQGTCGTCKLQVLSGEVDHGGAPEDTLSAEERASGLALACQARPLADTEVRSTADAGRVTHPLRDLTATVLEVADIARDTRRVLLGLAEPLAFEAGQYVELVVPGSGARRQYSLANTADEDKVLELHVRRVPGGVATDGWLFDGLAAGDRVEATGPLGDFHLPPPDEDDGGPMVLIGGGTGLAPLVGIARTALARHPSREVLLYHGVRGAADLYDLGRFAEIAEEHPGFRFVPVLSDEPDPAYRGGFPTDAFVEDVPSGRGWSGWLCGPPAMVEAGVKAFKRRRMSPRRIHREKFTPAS
Method: Analyte analysis of samples was performed on an Agilent 1200 LC system (Agilent Technologies, Santa Clara, CA) equipped with a G1315A diode array detector (DAD). Each sample and standard was injected at a volume of 10 μL onto a Phenomenex Luna C18(2) column 5 μm, 4.6 × 150 mm column (Phenomenex, Torrance, CA). The column temperature was maintained at 30 °C and the buffers used to separate the analytes of interest was 0.05% acetic acid in water (A)/ acetonitrile (B). The separation was carried out using a gradient program of: (A) = 99% and (B) = 1% at time t = 0; (A) = 99% and (B) = 1% at time t = 5, (A) = 50% and (B) = 50% at t = 35 min; (A) = 1% and (B) = 99% at t = 35.01 min; (A) = 99% and (B) = 1% at t = 37.01 min; (A) = 99% and (B) = 1% at t = 47.00 min. The flow rate was held constant at 0.6 mL min^−1 resulting in a run time of 47 min. Calibration curve concentration for each analyte varied between the ranges of 2.5–200 µg L^−1. A DAD wavelength of 225 nm was used for analysis of the analytes of interest. […] A minimum of 3–5 calibration levels was used with an r^2 coefficient of 0.995 or better for each analyte and a check calibration standard (CCS) was analyzed every 10 samples to insure the integrity of the initial calibration.

GcoAB [2] = molecular target: T2, GcoAB; conditions: for substrate classification with GcoAB: coupling of NADH consumption to demethylation; for binding or catalytic interaction with GcoA: screen of ten O-methylated aromatic compounds
Method: The demethylation of guaiacol and substrate analogs was continuously monitored under steady-state conditions. […] A total of 100 µg/mL catalase was added to each reaction to capture any H2O2 formed during the uncoupled reaction. […] A total of 20–300 µM guaiacol (preferred substrate) or an alternate substrate from a 2.5 mM stock dissolved in DMSO was added and the reaction was monitored via measurement of UV/vis spectra for several minutes. […] A plot of vi vs [guaiacol] was fit to Eq. (2) to obtain kcat, KM, and kcat/KM. For specific activity determination, the above method was used but with saturating (300 µM) guaiacol. […] Reported values are the average of ≥3 measurements and reported errors are standard deviations.
Reactions with vanillin were performed in the same manner described above.

GcoAB [3] = molecular target: T2, GcoAB; assay: Aldehyde product determination (tryptophan assay for formaldehyde, dehydrogenase assay for acetaldehyde) versus NADH consumed; format: biochemical, Amycolatopsis sp. ATCC 39116; design: GST (N, cleaved yes); made in house; host or cells: E. coli Rosetta 2 (DE3); conditions: formaldehyde (acetaldehyde for guaethol), saturating substrate, 300 μM NADH, 0.2 μM GcoAB
Excerpt: For the quantification of formaldehyde (demethylation) or acetaldehyde (de-ethylation) production, the reaction was monitored via UV/vis or fluorescence (in the case of vanillin) using the same set of conditions as outlined above for specific activity determination. After eight minutes, aliquots of the sample were removed and carried onto the respective aldehyde detection assay. For reactions that produced formaldehyde (e.g., all substrates except guaethol), a colorimetric tryptophan assay was used, described previously. Briefly, 200 µL of the reaction was quenched by adding 200 µL of 0.1% tryptophan solution in 50% ethanol, 200 µL 90% sulfuric acid and 40 µL of 1% FeCl3. The solution was then incubated in a heating block for 90 min at 70 °C. After cooling, the absorbance was read at 575 nm and the [formaldehyde] calculated by comparing to a standard curve made with 0–320 µM formaldehyde. A reaction with just the assay components was treated in the same manner as the reaction samples and used as a baseline. Control reactions included everything but GcoA/B, catalase, and substrate. Reported values are the average of ≥3 measurements.
[Acetaldehyde] produced during the dealkylation of guaethol was also determined by using a colorimetric assay and a generated acetaldehyde standard curve. A kit from BioAssays was used. Briefly, 20 µL of the reacted sample was transferred to a 96-well plate and 80 µL of the working reagent, consisting of NAD/MTT and aldehyde dehydrogenase, was added. The reaction was incubated for 30 min at room temperature and the absorbance read at 565 nm. Aldehyde dehydrogenase and NAD react with acetaldehyde to produce acetic acid and NADH. […] Control reactions included samples without substrate and/or aldehyde dehydrogenase. Reported values are the average of ≥3 measurements.

LigM = tested on: LigM; design: method as in ref 35 (a number printed in a supplementary file, which may have a reference list of its own: not looked up in the article's list); conditions: 0.076 μM LigM, 5 mM H4-folate, pH 8.0, 30 °C, cited from earlier work
[4] = substrate: CCOc1ccccc1O; assay: purified protein, by the assay type; conditions: other: 0.2 μM GcoAB, 300 μM NADH, pH 7.5, 25 °C, air
[5] = substrate: COc1ccccc1O; assay: purified protein, by the assay type; conditions: other: 0.2 μM GcoAB, 300 μM NADH, pH 7.5, 25 °C, air
[6] = substrate: COc1ccccc1C; assay: purified protein, by the assay type; conditions: other: 0.2 μM GcoAB, 300 μM NADH, pH 7.5, 25 °C, air
[7] = substrate: COc1cccc(O)c1O; assay: purified protein, by the assay type; conditions: other: 0.2 μM GcoAB, 300 μM NADH, pH 7.5, 25 °C, air
[8] = substrate: COc1ccccc1; assay: purified protein, by the assay type; conditions: other: 0.2 μM GcoAB, 300 μM NADH, pH 7.5, 25 °C, air

COc1cccc(OC)c1O [Syringol]
Kd (GcoA; 1–6 μM GcoA, 25 °C, 25 mM HEPES, 50 mM NaCl, pH 7.5, read-out: Compound KD): 2.8 ± 0.4 µM | Demethylated product: amount produced per NADH consumed (GcoAB [1]): 0.21 ± 0.002 | substrate classification with GcoAB (GcoAB [2]): partial substrate, partial uncoupler

COc1cc(C=O)ccc1O [Vanillin]
Kd (GcoA): 37 ± 3 µM | Aldehyde produced per NADH consumed (GcoAB [3]): 0.40 ± 0.04 | Aldehyde produced per NADH consumed (GcoAB [3]; listed as vanillin): less than stoichiometric amounts of formaldehyde | Demethylated product: amount produced per NADH consumed (GcoAB [1]): 0.20 ± 0.01 | substrate classification with GcoAB (GcoAB [2]): partial substrate, partial uncoupler

COc1cc(/C=C/C(=O)O)ccc1O [ferulate]
binding or catalytic interaction with GcoA (GcoAB [2]): no detectable binding or catalytic interaction; also recorded: preclude binding and/or demethylation

COc1cc(C(=O)O)ccc1O [vanillate]
Km (LigM): 630 ± 80 µM | kcat (LigM; vanillate 0.1-5 mM, 100 mM Tris, air): 5.8 ± 0.25 s⁻¹ | binding or catalytic interaction with GcoA (GcoAB [2]): no detectable binding or catalytic interaction; also recorded: preclude binding and/or demethylation

COc1ccccc1OC [veratrole]
substrate classification with GcoAB (GcoAB [2]): non-substrate/non-binder | binding or catalytic interaction with GcoA (GcoAB [2]): no detectable binding or catalytic interaction

B1: GcoAB (Amycolatopsis sp. ATCC 39116) (protein)
chain: MTTTERPDLAWLDEVTMTQLERNPYEVYERLRAEAPLAFVPVLGSYVASTAEVCREVATSPDFEAVITPAGGRTFGHPAIIGVNGDIHADLRSMVEPALQPAEVDRWIDDLVRPIARRYLERFENDGHAELVAQYCEPVSVRSLGDLLGLQEVDSDKLREWFAKLNRSFTNAAVDENGEFANPEGFAEGDQAKAEIRAVVDPLIDKWIEHPDDSAISHWLHDGMPPGQTRDREYIYPTIYVYLLGAMQEPGHGMASTLVGLFSRPEQLEEVVDDPTLIPRAIAEGLRWTSPIWSATARISTKPVTIAGVDLPAGTPVMLSYGSANHDTGKYEAPSQYDLHRPPLPHLAFGAGNHACAGIYFANHVMRIALEELFEAIPNLERDTREGVEFWGWGFRGPTSLHVTWEV
Km [4]: 15 ± 4 µM | kcat [4]: 1.4 ± 0.09 s⁻¹ | kcat/Km [4]: 100000 ± 20000 M⁻¹ s⁻¹ | Km [5]: 60 ± 10 µM | kcat [5]: 6.8 ± 0.5 s⁻¹ | kcat/Km [5]: 110000 ± 20000 M⁻¹ s⁻¹ | Km [6]: 27 ± 3 µM | kcat [6]: 4.6 ± 0.1 s⁻¹ | kcat/Km [6]: 170000 ± 20000 M⁻¹ s⁻¹ | Km [7]: 30 ± 3 µM | kcat [7]: 2.1 ± 0.05 s⁻¹ | kcat/Km [7]: 75000 ± 7000 M⁻¹ s⁻¹ | Km [8]: 43 ± 4 µM | kcat [8]: 3.5 ± 0.2 s⁻¹ | kcat/Km [8]: 82000 ± 8000 M⁻¹ s⁻¹
